The source of these data is publication PMC3790847.

The target in this data set is T1, Fur (ferric uptake regulator) (Shewanella piezotolerans WP3) (UniProt B8CQZ2).
T1 sequence: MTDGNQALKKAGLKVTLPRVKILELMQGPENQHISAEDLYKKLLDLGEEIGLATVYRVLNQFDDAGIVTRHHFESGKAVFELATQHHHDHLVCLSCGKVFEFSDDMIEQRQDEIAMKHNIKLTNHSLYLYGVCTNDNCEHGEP
Kind of data set: EMSA. The note with it: 40 mM KCl, 12.5 mM Tris pH 7.5, 125 uM MnCl2, 1.25 mM MgCl2, 5% glycerol, 0.5 mM DTT, 0.01% BSA, 50 ug/ml salmon sperm DNA, 20 C, 30 min; ~0.2 pmol probe and …. On the technique in general: In EMSA bound probe runs differently from free probe, usually more slowly.
“CAGGCTGTAATTGACCTTTTTACACGCAGCAAATAACTGCTTTTTTTGCTGTTCATCAAGTAAAGAGATGAGGGTTCCCGGCACGTTACATTCCTTGGCTTGATAATAATCAAGAGGTGAAGTTTGCTATTCAAGATATAGTGCAAATGATAATCATTATTAATAAAAGTGCAACATATAAAGGGAGCGATTATGGAAGCGATAAGTCCTGCTTTTCGATGGATAAGCGTGATAGCGA (double strand) [Crp-like regulator (swp3806) promoter]”: the binding entry is reported as “binds”.
With “TTATTACGTGCAATAAGAAGCTTTAACTTTGCTGAGATAAACAATGAAAGAGGAGTTTCTATCAAACTTTAAATGAATGATACAGCTTGATTTGTTTGTGATCTTTTTGCTTTTGATGGTTACAGGTTTGTTAGTGTTGTGCGCGAGTTCACATTGACAATGTAAATACACGTAAAGAAGTATGAATAAAAACAATTCTCATTTATATTGCAGCCAATTATTAAATGTAGCTTTCATTTTTGGGGTTGGTTATGTCTTTTCAGGCGTCTT (double strand) [TonB receptor (swp5150) promoter]”, the binding entry was “binds”.
For “TGACCTTAATCACATAAAGCATCTAAAACACCTGCTAAAAATTACGCTGTTAGTTAGCCTTAGAGGTGGAAATAAAATTCCACACACTAAATAAGGGTAAATGAGATTTGTTCTCAAACTAATTCCCTTTTTAGTGATGATTAAAAAACTATTGCAGGGACAAAAATGATGAAATTTTTCAACTTAAGCGCGACTTCAAAAGCGCTACTTACGGCAGGGGTGCTTTCGTTAGCAGTTTCTGGCTGTAGTGGC (double strand) [omcA (swp3277) promoter]” the value was “binds”.
For “ATAGAGGGGAGCCATAACGGCGAAGGTTACATGGAACTCACCGGCTACTAAGCCGTAACAACCACTCAAACATAAGCTTTATGAAGTATGTAATTGCATTCAAAAAGCAATAGATAAGAATAATTATCATTTACTAAGCTTATGAATATCTTGGATATTTAATGTAGCGCAAGCTAACATTTCGAGTGGACAAAATTCAAACAAGCTTCTAGTCTTTATTGGTAAATTTGAGAACTAGATCACCCCCTAAAAGTTGATCTTGGTCGAT (double strand) [napD (swp4456) promoter]”, the binding entry was “binds”.
